Experimental data as given in patent US20190202925A1 (OPI VI IP HOLDCO, published 2019).

Key:
[1] = target: T1, soluble human TNFR2 (human, UniProt P20333 23-257); assay: competition ELISA (FIG. 1), plate-bound soluble human TNFR2, constant biotinylated TNFα as competitor
T1 construct: also called soluble TNFR2
T1 sequence (looked up): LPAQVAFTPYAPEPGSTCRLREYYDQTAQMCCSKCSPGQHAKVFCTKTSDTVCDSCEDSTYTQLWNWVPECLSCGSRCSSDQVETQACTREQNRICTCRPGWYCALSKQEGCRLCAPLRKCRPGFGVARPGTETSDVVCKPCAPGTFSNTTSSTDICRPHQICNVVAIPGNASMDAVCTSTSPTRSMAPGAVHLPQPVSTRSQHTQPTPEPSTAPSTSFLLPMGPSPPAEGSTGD
Excerpt: (§1) Soluble human TNFR2 was coated on Nunc-Immuno™ plates. […] IC₅₀ values are reported in nM.

[2] = target: T2, monomeric human TNFR2 extracellular domain (human, UniProt P20333 23-257); assay: BLI (Octet Red 96), antibody captured on Fc biosensor, monomeric TNFR2 ECD in solution, 1:1 model
T2 construct: extracellular domain; Analyte in the Octet experiments; also called human TNFR2 ECD
T2 sequence (looked up): T1 sequence (looked up)
Experimental: Analysis of binding to the human and cynomolgus TNFR2 ECD was performed using an Octet Red 96 Instrument™ (ForteBio). […] The experiments were performed using five steps: (1) baseline acquisition (60 s); (2) antibody loading on to anti-human or anti-mouse Fc biosensors (120 s); (3) second baseline acquisition (60 s); (4) association of interacting monomeric human or cynomolgus TNFR2 ECD protein for kₒₙ measurement (120 s); and (5) dissociation of interacting monomeric human or cynomolgus TNFR2 ECD for koff measurement (240-3600 s).
The interacting monomeric human or cynomolgus ECD was used at 5-6 concentrations of a 3-fold concentration series. The data were analyzed using Octet Data Analysis Software 9.0™ (ForteBio) and fit to the 1:1 binding model. The equilibrium dissociation constants (Kd) were calculated by the ratio of […].

[3] = target: T1, soluble human TNFR2; assay: competition ELISA (FIG. 2), plate-bound soluble human TNFR2, constant biotinylated TNFα as competitor; unit from paragraph 202 (IC50 values are reported in nM)
Excerpt: as §1

[4] = target: T2, monomeric human TNFR2 extracellular …; assay: BLI (Octet Red 96), Human TNFR2 Kd (1-1)

B1: SBT-004 (antibody, V domains shown)
VH: EVQLQQSGPEVGRPGSSVKISCKASGYTFTDYIMHWVKQSPGQGLEWIGWVDPEYGSTDYAEKFKKKATLTADTSSNTAYIQLSSLTSEDTATYFCARDDGSYSPFDYWGQGVMVTVSS
VL: DIQMTQSPPSLSASLGDKVTITCQASQNINKYIAWYQQKPGKAPRLLIRYTSTLESGTPSRFSGSGSGRDYSFSISNVESEDIASYYCLQYVNLLTFGAGTKLEIK
notes: Parental rat antibody; also called rat SBT-004
With B1 the IC50 [1] was 7.88 nM, the Kd [2] was 1.8 nM and the IC50 [3] was 6.59 nM. For the same binder, the Kd [4] was 1.1 nM.
